According to patent publication US20210388087A1 (Chugai, published 2021):

Biological target: T1, CD3 epsilon homodimer protein (UniProt P07766 23-126)
T1 construct: also called CD3 (CD3 epsilon)
Test: SPR, CD3 epsilon homodimer on chip, one-arm antibody as analyte;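 note: surface plasmon resonance at 25 °C with CD3 epsilon homodimer amine-coupled to a CM4 sensor chip, antibody injected as analyte, HBS-EP+ as running buffer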

T1 sequence (P07766 23-126): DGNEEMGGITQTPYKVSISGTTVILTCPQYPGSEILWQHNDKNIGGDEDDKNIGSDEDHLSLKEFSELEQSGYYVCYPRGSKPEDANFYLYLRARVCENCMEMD

Row | KD ratio (KD of CE115HA000/KD of altered form) | Binder
1 | 30 | CE115HA000 W33A (antibody, human IgG1, kappa, L234A L235A, N297A, name in Kabat numbering, one-arm antibody) heavy: QVQLVESGGGVVQPGRSLRLSCAASGFTFSNAAMHWVRQAPGKGLEWVAQIKAKSNNYATYYAESVKGRFTISRDDSKNSLYLQMNSLKTEDTAVYYCRYVHYGAYYGVDAWGQGTTVTVSSASTKGPSVFPLAPSSKSTSGGTAALGCLVKDYFPEPVTVSWNSGALTSGVHTFPAVLQSSGLYSLSSVVTVPSSSLGTQTYICNVNHKPSNTKVDKKVEPKSCDKTHTCPPCPAPEAAGGPSVFLFPPKPKDTLMISRTPEVTCVVVDVSHEDPEVKFNWYVDGVEVHNAKTKPREEQYASTYRVVSVLTVLHQDWLNGKEYKCKVSNKALPAPIEKTISKAKGQPREPQVYTLPPSRCELTKNQVSLSCAVKGFYPSDIAVEWESNGQPENNYKTTPPVLDSDGSFFLVSKLTVDKSRWQQGNVFSCSVMHEALHNHYTQKSLSLSPDYKDDDDK EPKSSDKTHTCPPCPAPELLGGPSVFLFPPKPKDTLMISRTPEVTCVVVDVSHEDPEVKFNWYVDGVEVHNAKTKPREEQYNSTYRVVSVLTVLHQDWLNGKEYKCKVSNKALPAPIEKTISKAKGQPREPQVCTLPPSRDELTKNQVSLWCLVKGFYPSDIAVEWESNGQPENNYKTTPPVLDSDGSFFLYSKLTVDKSRWQQGNVFSCSVMHEALHNRYTQKSLSLSP light: DIVMTQSPLSLPVTPGEPASISCRSSQSLVHSNRNTYLHWYQQKPGQAPRLLIYKVSNRFSGVPDRFSGSGSGTDFTLKISRVEAEDVGVYYCGQGTQVPYTFGQGTKLEIKRTVAAPSVFIFPPSDEQLKSGTASVVCLLNNFYPREAKVQWKVDNALQSGNSQESVTEQDSKDSTYSLSSTLTLSKADYEKHKVYACEVTHQGLSSPVTKSFNRGEC
2 | 1690 | CE115HA000 W33D (antibody, human IgG1, kappa, L234A L235A, N297A, name in Kabat numbering, one-arm antibody) heavy: QVQLVESGGGVVQPGRSLRLSCAASGFTFSNADMHWVRQAPGKGLEWVAQIKAKSNNYATYYAESVKGRFTISRDDSKNSLYLQMNSLKTEDTAVYYCRYVHYGAYYGVDAWGQGTTVTVSSASTKGPSVFPLAPSSKSTSGGTAALGCLVKDYFPEPVTVSWNSGALTSGVHTFPAVLQSSGLYSLSSVVTVPSSSLGTQTYICNVNHKPSNTKVDKKVEPKSCDKTHTCPPCPAPEAAGGPSVFLFPPKPKDTLMISRTPEVTCVVVDVSHEDPEVKFNWYVDGVEVHNAKTKPREEQYASTYRVVSVLTVLHQDWLNGKEYKCKVSNKALPAPIEKTISKAKGQPREPQVYTLPPSRCELTKNQVSLSCAVKGFYPSDIAVEWESNGQPENNYKTTPPVLDSDGSFFLVSKLTVDKSRWQQGNVFSCSVMHEALHNHYTQKSLSLSPDYKDDDDK EPKSSDKTHTCPPCPAPELLGGPSVFLFPPKPKDTLMISRTPEVTCVVVDVSHEDPEVKFNWYVDGVEVHNAKTKPREEQYNSTYRVVSVLTVLHQDWLNGKEYKCKVSNKALPAPIEKTISKAKGQPREPQVCTLPPSRDELTKNQVSLWCLVKGFYPSDIAVEWESNGQPENNYKTTPPVLDSDGSFFLYSKLTVDKSRWQQGNVFSCSVMHEALHNRYTQKSLSLSP light: DIVMTQSPLSLPVTPGEPASISCRSSQSLVHSNRNTYLHWYQQKPGQAPRLLIYKVSNRFSGVPDRFSGSGSGTDFTLKISRVEAEDVGVYYCGQGTQVPYTFGQGTKLEIKRTVAAPSVFIFPPSDEQLKSGTASVVCLLNNFYPREAKVQWKVDNALQSGNSQESVTEQDSKDSTYSLSSTLTLSKADYEKHKVYACEVTHQGLSSPVTKSFNRGEC

The remaining lines, values behind:

Row | Binder | KD ratio (KD of CE115HA000/KD of altered form)
3 | CE115HA000 V95S (antibody, human IgG1, kappa, L234A L235A, N297A, name in Kabat numbering, one-arm antibody) heavy: QVQLVESGGGVVQPGRSLRLSCAASGFTFSNAWMHWVRQAPGKGLEWVAQIKAKSNNYATYYAESVKGRFTISRDDSKNSLYLQMNSLKTEDTAVYYCRYSHYGAYYGVDAWGQGTTVTVSSASTKGPSVFPLAPSSKSTSGGTAALGCLVKDYFPEPVTVSWNSGALTSGVHTFPAVLQSSGLYSLSSVVTVPSSSLGTQTYICNVNHKPSNTKVDKKVEPKSCDKTHTCPPCPAPEAAGGPSVFLFPPKPKDTLMISRTPEVTCVVVDVSHEDPEVKFNWYVDGVEVHNAKTKPREEQYASTYRVVSVLTVLHQDWLNGKEYKCKVSNKALPAPIEKTISKAKGQPREPQVYTLPPSRCELTKNQVSLSCAVKGFYPSDIAVEWESNGQPENNYKTTPPVLDSDGSFFLVSKLTVDKSRWQQGNVFSCSVMHEALHNHYTQKSLSLSPDYKDDDDK EPKSSDKTHTCPPCPAPELLGGPSVFLFPPKPKDTLMISRTPEVTCVVVDVSHEDPEVKFNWYVDGVEVHNAKTKPREEQYNSTYRVVSVLTVLHQDWLNGKEYKCKVSNKALPAPIEKTISKAKGQPREPQVCTLPPSRDELTKNQVSLWCLVKGFYPSDIAVEWESNGQPENNYKTTPPVLDSDGSFFLYSKLTVDKSRWQQGNVFSCSVMHEALHNRYTQKSLSLSP light: DIVMTQSPLSLPVTPGEPASISCRSSQSLVHSNRNTYLHWYQQKPGQAPRLLIYKVSNRFSGVPDRFSGSGSGTDFTLKISRVEAEDVGVYYCGQGTQVPYTFGQGTKLEIKRTVAAPSVFIFPPSDEQLKSGTASVVCLLNNFYPREAKVQWKVDNALQSGNSQESVTEQDSKDSTYSLSSTLTLSKADYEKHKVYACEVTHQGLSSPVTKSFNRGEC | 4.61
4 | CE115HA000 V100cD (antibody, human IgG1, kappa, L234A L235A, N297A, name in Kabat numbering, one-arm antibody) heavy: QVQLVESGGGVVQPGRSLRLSCAASGFTFSNAWMHWVRQAPGKGLEWVAQIKAKSNNYATYYAESVKGRFTISRDDSKNSLYLQMNSLKTEDTAVYYCRYVHYGAYYGDDAWGQGTTVTVSSASTKGPSVFPLAPSSKSTSGGTAALGCLVKDYFPEPVTVSWNSGALTSGVHTFPAVLQSSGLYSLSSVVTVPSSSLGTQTYICNVNHKPSNTKVDKKVEPKSCDKTHTCPPCPAPEAAGGPSVFLFPPKPKDTLMISRTPEVTCVVVDVSHEDPEVKFNWYVDGVEVHNAKTKPREEQYASTYRVVSVLTVLHQDWLNGKEYKCKVSNKALPAPIEKTISKAKGQPREPQVYTLPPSRCELTKNQVSLSCAVKGFYPSDIAVEWESNGQPENNYKTTPPVLDSDGSFFLVSKLTVDKSRWQQGNVFSCSVMHEALHNHYTQKSLSLSPDYKDDDDK EPKSSDKTHTCPPCPAPELLGGPSVFLFPPKPKDTLMISRTPEVTCVVVDVSHEDPEVKFNWYVDGVEVHNAKTKPREEQYNSTYRVVSVLTVLHQDWLNGKEYKCKVSNKALPAPIEKTISKAKGQPREPQVCTLPPSRDELTKNQVSLWCLVKGFYPSDIAVEWESNGQPENNYKTTPPVLDSDGSFFLYSKLTVDKSRWQQGNVFSCSVMHEALHNRYTQKSLSLSP light: DIVMTQSPLSLPVTPGEPASISCRSSQSLVHSNRNTYLHWYQQKPGQAPRLLIYKVSNRFSGVPDRFSGSGSGTDFTLKISRVEAEDVGVYYCGQGTQVPYTFGQGTKLEIKRTVAAPSVFIFPPSDEQLKSGTASVVCLLNNFYPREAKVQWKVDNALQSGNSQESVTEQDSKDSTYSLSSTLTLSKADYEKHKVYACEVTHQGLSSPVTKSFNRGEC | 1.64
5 | CE115HA000 V100cE (antibody, human IgG1, kappa, L234A L235A, N297A, name in Kabat numbering, one-arm antibody) heavy: QVQLVESGGGVVQPGRSLRLSCAASGFTFSNAWMHWVRQAPGKGLEWVAQIKAKSNNYATYYAESVKGRFTISRDDSKNSLYLQMNSLKTEDTAVYYCRYVHYGAYYGEDAWGQGTTVTVSSASTKGPSVFPLAPSSKSTSGGTAALGCLVKDYFPEPVTVSWNSGALTSGVHTFPAVLQSSGLYSLSSVVTVPSSSLGTQTYICNVNHKPSNTKVDKKVEPKSCDKTHTCPPCPAPEAAGGPSVFLFPPKPKDTLMISRTPEVTCVVVDVSHEDPEVKFNWYVDGVEVHNAKTKPREEQYASTYRVVSVLTVLHQDWLNGKEYKCKVSNKALPAPIEKTISKAKGQPREPQVYTLPPSRCELTKNQVSLSCAVKGFYPSDIAVEWESNGQPENNYKTTPPVLDSDGSFFLVSKLTVDKSRWQQGNVFSCSVMHEALHNHYTQKSLSLSPDYKDDDDK EPKSSDKTHTCPPCPAPELLGGPSVFLFPPKPKDTLMISRTPEVTCVVVDVSHEDPEVKFNWYVDGVEVHNAKTKPREEQYNSTYRVVSVLTVLHQDWLNGKEYKCKVSNKALPAPIEKTISKAKGQPREPQVCTLPPSRDELTKNQVSLWCLVKGFYPSDIAVEWESNGQPENNYKTTPPVLDSDGSFFLYSKLTVDKSRWQQGNVFSCSVMHEALHNRYTQKSLSLSP light: DIVMTQSPLSLPVTPGEPASISCRSSQSLVHSNRNTYLHWYQQKPGQAPRLLIYKVSNRFSGVPDRFSGSGSGTDFTLKISRVEAEDVGVYYCGQGTQVPYTFGQGTKLEIKRTVAAPSVFIFPPSDEQLKSGTASVVCLLNNFYPREAKVQWKVDNALQSGNSQESVTEQDSKDSTYSLSSTLTLSKADYEKHKVYACEVTHQGLSSPVTKSFNRGEC | 1.31
6 | CE115HA000 V100cP (antibody, human IgG1, kappa, L234A L235A, N297A, name in Kabat numbering, one-arm antibody) heavy: QVQLVESGGGVVQPGRSLRLSCAASGFTFSNAWMHWVRQAPGKGLEWVAQIKAKSNNYATYYAESVKGRFTISRDDSKNSLYLQMNSLKTEDTAVYYCRYVHYGAYYGPDAWGQGTTVTVSSASTKGPSVFPLAPSSKSTSGGTAALGCLVKDYFPEPVTVSWNSGALTSGVHTFPAVLQSSGLYSLSSVVTVPSSSLGTQTYICNVNHKPSNTKVDKKVEPKSCDKTHTCPPCPAPEAAGGPSVFLFPPKPKDTLMISRTPEVTCVVVDVSHEDPEVKFNWYVDGVEVHNAKTKPREEQYASTYRVVSVLTVLHQDWLNGKEYKCKVSNKALPAPIEKTISKAKGQPREPQVYTLPPSRCELTKNQVSLSCAVKGFYPSDIAVEWESNGQPENNYKTTPPVLDSDGSFFLVSKLTVDKSRWQQGNVFSCSVMHEALHNHYTQKSLSLSPDYKDDDDK EPKSSDKTHTCPPCPAPELLGGPSVFLFPPKPKDTLMISRTPEVTCVVVDVSHEDPEVKFNWYVDGVEVHNAKTKPREEQYNSTYRVVSVLTVLHQDWLNGKEYKCKVSNKALPAPIEKTISKAKGQPREPQVCTLPPSRDELTKNQVSLWCLVKGFYPSDIAVEWESNGQPENNYKTTPPVLDSDGSFFLYSKLTVDKSRWQQGNVFSCSVMHEALHNRYTQKSLSLSP light: DIVMTQSPLSLPVTPGEPASISCRSSQSLVHSNRNTYLHWYQQKPGQAPRLLIYKVSNRFSGVPDRFSGSGSGTDFTLKISRVEAEDVGVYYCGQGTQVPYTFGQGTKLEIKRTVAAPSVFIFPPSDEQLKSGTASVVCLLNNFYPREAKVQWKVDNALQSGNSQESVTEQDSKDSTYSLSSTLTLSKADYEKHKVYACEVTHQGLSSPVTKSFNRGEC | 0.97
